{"source": "patent US20250034264A1", "about": "“REGULATING T CELL IMMUNE RESPONSE THROUGH IGF-I RECEPTOR (IGF-1R)” (The Regents of the University of Michigan, priority 2021, published 2025)", "molecules": {"B1": {"name": "rhSlit2: recombinant human Slit2, a neural axon repellent generated by CD34− OF (protein, UniProt O94813 31-1529, looked up)", "Slit homolog 2 protein": "QCSCSGSTVDCHGLALRSVPRNIPRNTERLDLNGNNITRITKTDFAGLRHLRVLQLMENKISTIERGAFQDLKELERLRLNRNHLQLFPELLFLGTAKLYRLDLSENQIQAIPRKAFRGAVDIKNLQLDYNQISCIEDGAFRALRDLEVLTLNNNNITRLSVASFNHMPKLRTFRLHSNNLYCDCHLAWLSDWLRQRPRVGLYTQCMGPSHLRGHNVAEVQKREFVCSGHQSFMAPSCSVLHCPAACTCSNNIVDCRGKGLTEIPTNLPETITEIRLEQNTIKVIPPGAFSPYKKLRRIDLSNNQISELAPDAFQGLRSLNSLVLYGNKITELPKSLFEGLFSLQLLLLNANKINCLRVDAFQDLHNLNLLSLYDNKLQTIAKGTFSPLRAIQTMHLAQNPFICDCHLKWLADYLHTNPIETSGARCTSPRRLANKRIGQIKSKKFRCSAKEQYFIPGTEDYRSKLSGDCFADLACPEKCRCEGTTVDCSNQKLNKIPEHIPQYTAELRLNNNEFTVLEATGIFKKLPQLRKINFSNNKITDIEEGAFEGASGVNEILLTSNRLENVQHKMFKGLESLKTLMLRSNRITCVGNDSFIGLSSVRLLSLYDNQITTVAPGAFDTLHSLSTLNLLANPFNCNCYLAWLGEWLRKKRIVTGNPRCQKPYFLKEIPIQDVAIQDFTCDDGNDDNSCSPLSRCPTECTCLDTVVRCSNKGLKVLPKGIPRDVTELYLDGNQFTLVPKELSNYKHLTLIDLSNNRISTLSNQSFSNMTQLLTLILSYNRLRCIPPRTFDGLKSLRLLSLHGNDISVVPEGAFNDLSALSHLAIGANPLYCDCNMQWLSDWVKSEYKEPGIARCAGPGEMADKLLLTTPSKKFTCQGPVDVNILAKCNPCLSNPCKNDGTCNSDPVDFYRCTCPYGFKGQDCDVPIHACISNPCKHGGTCHLKEGEEDGFWCICADGFEGENCEVNVDDCEDNDCENNSTCVDGINNYTCLCPPEYTGELCEEKLDFCAQDLNPCQHDSKCILTPKGFKCDCTPGYVGEHCDIDFDDCQDNKCKNGAHCTDAVNGYTCICPEGYSGLFCEFSPPMVLPRTSPCDNFDCQNGAQCIVRINEPICQCLPGYQGEKCEKLVSVNFINKESYLQIPSAKVRPQTNITLQIATDEDSGILLYKGDKDHIAVELYRGRVRASYDTGSHPASAIYSVETINDGNFHIVELLALDQSLSLSVDGGNPKIITNLSKQSTLNFDSPLYVGGMPGKSNVASLRQAPGQNGTSFHGCIRNLYINSELQDFQKVPMQTGILPGCEPCHKKVCAHGTCQPSSQAGFTCECQEGWMGPLCDQRTNDPCLGNKCVHGTCLPINAFSYSCKCLEGHGGVLCDEEEDLFNPCQAIKCKHGKCRLSGLGQPYCECSSGYTGDSCDREISCRGERIRDYYQKQQGYAACQTTKKVSRLECRGGCAGGQCCGPLRSKRRKYSFECTDGSSFVDEVEKVVKCGCTRCVS"}}, "type_in_all_cases": "cell-based, human", "key": {"fibrocytes": {"system": "fibrocytes", "test": "IL-10, icIL-1RA, sIL-1RA expression (PCR, ELISA)", "procedure": "FIGS. 11A-11F are graphs showing teprotumumab attenuates bTSH induced IL-10 while enhancing icIL-1RA and sIL-1RA expression in fibrocytes and GD-OF. Fibrocyte cultures were treated with teprotumumab (50 μg/ml), rhSlit2 (50 ng/ml) or human Isotype IgG for 7-9 d, with bTSH (5 mIU/mL) for final 6 h. RNA was extracted and reverse transcribed. Isolated cDNA was subjected to quantitative real-time PCR for IL-10 (FIGS. 11A and 11B), icIL-1RA (FIGS. 11C and 11D). Media and cellular proteins were collected and subjected to specific ELISAs for icIL-1RA and sIL-1RA (FIGS. 11E, 11F, 11G, and 11H). PCR values were normalized to their respective GAPDH levels. icIL-1RA and sIL-1RA protein levels were normalized to cellular protein levels. Data are expressed as the mean±SD of three independent determinations. Experiments were repeated three times. **, p<0.01; ***. P<0.001.\nIL-12, IL-23, IL-10, HA and BAFF ELISAs. Confluent cultures were treated with nothing or teprotumumab (50 μg/mL) for 5 d, without or with bTSH (5 mU/mL) for the intervals indicated or 72 h. Media and rinsed cell layers were homogenized in 0.1M NaCl and assayed for HA content using an ELISA kit (K-1200) from Echelon Biosciences Inc. (Salt Lake City, UT) according to manufacturer's instructions. A BAFF specific ELISA, purchased from R & D systems, was used in accordance with the manufacturer's instructions.\n(§1) Real-time PCR Confluent fibrocyte and GD-OF cultures were incubated with bTSH (5 mIU/mL), teprotumumab (50 μg/mL) or linsitinib (1 μM) for the time intervals indicated, washed with PBS and RNA was extracted with the Aurum Total RNA Mini Kit (cat. #732-6820, Bio-Rad, Hercules, CA). Cellular RNA (2 μg) was reverse transcribed using QuantiTect Reverse Transcription kit (cat. #205314, Qiagen (Germantown, MD) and real-time PCR was performed using an Applied Biosystems instrument with QuantiTect SYBR Green PCR kit (cat. no. 204143; Qiagen, Frederick, MD). Primer sequences were as follows."}, "CD34+ fibrocytes": {"system": "CD34+ fibrocytes", "test": "MHC II, CD80, CD86, PD-L1 expression in cultured fibrocytes (RT-qPCR, flow cytometry)", "conditions": "rhSlit2 50 ng/ml, 5 to 7 d", "description": "Fibrocyte and T cell isolation and cultivation. Peripheral blood mononuclear cells (PBMCs) were obtained from the venous circulation of clinic patients with GD, TAO or from healthy donors after obtaining informed consent. PBMCs were also obtained from Red Cross donor plasmapheresis filters. They were isolated by Ficoll-Histopaque (Sigma-Aldrich, St. Louis, MO) density gradient centrifugation. Fibrocytes were cultivated as described (Bucala, R, et al., (1994) Mol Med 1, 71-81, incorporated herein by reference in its entirety) except that culture substrata remained uncoated with fibronectin, as previously described (Douglas, R. S., et al. (2010) The Journal of clinical endocrinology and metabolism 95, 430-438). Isolated PBMCs (1×10^6-1×107) were inoculated in six-well plates covered with DMEM containing 10% FBS and incubated in 10-14 days. Adherent monolayers (<5% of the starting population) were washed with PBS and detached using accutase (Millipore) treatment, or mechanical scraping following accutase treatment. Culture purity was routinely confirmed by FACS analysis to be >90% fibrocytes by confirming the CD31^−CD45^+CD34^+CXCR4^+Col I^+TSFR^high phenotype.\nInvariably, a small population of tightly adherent T cells were found in the fibrocyte cultures, consistent with the previous findings. Culture viability was routinely verified to be >90%. CD4^+ T cells were enriched using the CD4 isolation cocktail (Cat #0.130-096-533, Miltenyi Biotec, San Diego, CA) followed by negative selection using a magnetic column (Cat #0.130-042-401) according to manufacturer's protocol. Fibrocytes and isolated T cells were cultured and remained untreated or were incubated with human IgG isotype control (5 μg/ml) or teprotumumab (50 μg/mL) for 7 to 9 days. Single cell suspensions were stained with anti-human CD4, CD3, CD34, MHC-2, CD80, CD86, and PD-L1 (BD Biosciences) for 30 min, rinsed and fixed with CytoPerm/CytoFix (BD). They were then stained with anti-human INFγ and IL-17A for 20 min, rinsed, and subjected to the flow cytometry analysis. Gated CD34^+CXCR4^+ fibrocytes and CD4^+CD3^+ T cells were analyzed using quadrant settings based on negative isotype staining.\nIn vitro studies of CD34^+ fibrocytes and T cells PBMC and GD-OF monolayers were treated in vitro with human IgG isotype control (5 μg/ml), teprotumumab (50 μg/mL), H7 (5 μg/mL), linsitinib (1 μM), bTSH (5 mIU/mL), M22 (1 μg/mL), or IGF-1 (10 nM) for the intervals indicted in the figure legends in a 37° C., 5% CO2, humidified incubator until confluent. Brefeldin A (0.66 μl/ml), (Golgi Stop™, BD Biosciences), phorbol 12-myristate 13-acetate (PMA) (50 ng/ml) and ionomycin (1 μg/mL) were added for 5 h. Cells were rinsed with flow cytometry buffer (1×PBS, 0.5% BSA, 0.1% sodium azide) and stained with the relevant monoclonal antibodies.\nas §1"}, "fibrocytes and GD-OF": {"system": "fibrocytes and GD-OF", "test": "BAFF expression and induction by bTSH", "conditions": "teprotumumab 50 μg/ml or rhSlit2 50 ng/ml", "procedure": "FIGS. 12A-12F are graphs showing the effect of bTSH, teprotumumab, and Slit2 on B-cell activating factor (BAFF) expression in fibrocytes and GD-OF. In FIGS. 12A and 12B, cultures were treated for the graded intervals indicated along the abscissas with bTSH (5 mIU/mL). Cellular RNA was harvested and subjected to reverse transcription by RT-PCR (FIG. 12A). Values were normalized to their respective GAPDH levels Medium was assayed for BAFF levels with an ELISA (FIG. 12B). Values were normalized to respective monolayer protein content. Data are expressed as mean f SD of triplicate determinations; *, p<0.05; **, p<0.01; ***, p<0.001. In FIGS. 12C-12F, bTSH, teprotumumab (50 μg/ml) or recombinant human Slit2 (rhSlit2) (50 ng/ml) were added to culture media for the times indicated and analyzed for BAFF mRNA levels as in FIG. 12A. In FIGS. 12F, parental GD-OF strains were sorted into pure CD34^+ and CD34^− subsets. Subsets were then cultured for 48 h, the final 6 h in the absence or presence of bTSH. Data were expressed as mean f SD of triplicate independent determinations from a single experiment representative of three conducted. *, p<0.05; **, p<0.01\nIL-12, IL-23, IL-10, HA and BAFF ELISAs. Confluent cultures were treated with nothing or teprotumumab (50 μg/mL) for 5 d, without or with bTSH (5 mU/mL) for the intervals indicated or 72 h. […]"}, "[1]": {"conditions": "teprotumumab 50 μg/ml or rhSlit2 50 ng/ml, 7-9 d"}}}
{"molecule": "B1", "values": [{"measurement": "sIL-1RA expression (protein)", "setting": "fibrocytes; ELISA, fibrocytes", "value": "attenuated"}, {"measurement": "IL-10 mRNA, basal and bTSH-provoked expression", "setting": "fibrocytes; [1]", "value": "downregulated"}, {"measurement": "basal and bTSH-dependent icIL-1RA and sIL-1RA mRNA levels", "setting": "fibrocytes; [1]", "value": "upregulated"}, {"measurement": "MHC II and B7 expression", "setting": "CD34+ fibrocytes", "value": "repressing"}, {"measurement": "bTSH induction of BAFF", "setting": "fibrocytes and GD-OF", "value": "similar"}]}
